Test results taken from PMC5103873.
Blank lines part the entries; values can stand above or below the substance they belong to.

What was measured:
[1] = target: arrestin3; test: single-cell FRET, PTH1R–eYFP / arrestin3–CFP
[2] = target: arrestin3; test: dual-color FRAP of arrestin3–CFP; details: reference: wild type
[3] = target: arrestin3; test: BRET, arrestin3–Rluc / PTH1R–eYFP; details: reference: wild type
[4] = target: PTH1R PD3 mutant (mutations of clusters 1 and 2 combined), HA- and eYFP-tagged (human) (UniProt Q03431)
[5] = target: parathyroid hormone receptor 1 (PTH1R) wild type, N-terminally HA-tagged, C-terminally eYFP-labelled (human) (UniProt Q03431)
[6] = sites S489,S491,S492,S493,S495,S501,T503,S504,T506

Substance: PTH1R (parathyroid hormone receptor 1) (from UniProt Q03431) 100 nM PTH(1–34)
other: increase in FRET ([1]; reference: before agonist): 24.8%

Substance: PTH1R (parathyroid hormone receptor 1) (from UniProt Q03431) PD2 (cluster 2 S/T to Ala)
other: arrestin3 recovery after photobleaching ([2]; sites S501,T503,S504,T506): weaker; reference 19.07 ± 0.68–23.94 ± 0.86
percent of reference (% of WT maximum BRET) ([3]; sites S501,T503,S504,T506): 66.9

Substance: PTH1R (parathyroid hormone receptor 1) (from UniProt Q03431) PD3 (clusters 1 and 2 S/T to Ala)
other: arrestin3 recovery after photobleaching [2, 6]: weaker; reference 19.07 ± 0.68–23.94 ± 0.86
percent of reference (% of WT maximum BRET) [3, 6]: 46.6

Substance: PTH1R (parathyroid hormone receptor 1) (from UniProt Q03431) T503A, S504A
other: arrestin3 recovery after photobleaching ([2]; sites T503,S504): weaker; reference 19.07 ± 0.68–23.94 ± 0.86
other: agonist-induced FRET change ([1]; reference: wild type, sites T503,S504): weaker; reference 24.8 ± 12.7

More lines, main results first:

other: reduction of FRET signal vs WT ([1]; reference: wild type, sites S489,S491,S492,S493,S495): 42.1%
percent of reference (% of WT maximum BRET) ([3]; sites S489,S491,S492,S493,S495): 80.8
Substance: PTH1R (parathyroid hormone receptor 1) (from UniProt Q03431) PD1 (cluster 1 S/T to Ala)
other: arrestin3 recovery after photobleaching ([2]; sites S489,S491,S492,S493,S495): same; reference 19.07 ± 0.68–23.94 ± 0.86

pEC50 of PTH(1–34) for cAMP accumulation (HTRF) in HEK293 cells transfected with HA–PTH1R PD3 (without YFP), 15 min, 100 µM IBMX [4]: 11.3
pEC50 of PTH(1–34) for cAMP accumulation (HTRF) in HEK293 cells transfected with HA–PTH1R WT (without YFP), 15 min, 100 µM IBMX [5]: 10.9
Substance: PTH(1–34) (peptide)
